Test results taken from IntAct's records for PubMed 22518841.

B1: Complement factor H-related protein 4 (Homo sapiens), Q92496-3 (parent)
chain: MLLLINVILTLWVSCANGQEVKPCDFPEIQHGGLYYKSLRRLYFPAAAGQSYSYYCDQNFVTPSGSYWDYIHCTQDGWSPTVPCLRTCSKSDIEIENGFISESSSIYILNKEIQYKCKPGYATADGNSSGSITCLQNGWSAQPICIKFCDMPVFENSRAKSNGMRFKLHDTLDYECYDGYEISYGNTTGSIVCGEDGWSHFPTCYNSSEKCGPPPPISNGDTTSFLLKVYVPQSRVEYQCQSYYELQGSNYVTCSNGEWSEPPRCIHPCIITEENMNKNNIQLKGKSDIKYYAKTGDTIEFMCKLGYNANTSVLSFQAVCREGIVEYPRCE

Legend:
co3_human C3, P01024 = variants of: B1; conditions: with co3_human C3, P01024
cfab_human CFB, P00751 = variants of: B1; conditions: with cfab_human CFB
prop_human CFP, P27918 = variants of: B1; conditions: with prop_human CFP
prop_human CFP, P27918, sequence (P27918 whole entry): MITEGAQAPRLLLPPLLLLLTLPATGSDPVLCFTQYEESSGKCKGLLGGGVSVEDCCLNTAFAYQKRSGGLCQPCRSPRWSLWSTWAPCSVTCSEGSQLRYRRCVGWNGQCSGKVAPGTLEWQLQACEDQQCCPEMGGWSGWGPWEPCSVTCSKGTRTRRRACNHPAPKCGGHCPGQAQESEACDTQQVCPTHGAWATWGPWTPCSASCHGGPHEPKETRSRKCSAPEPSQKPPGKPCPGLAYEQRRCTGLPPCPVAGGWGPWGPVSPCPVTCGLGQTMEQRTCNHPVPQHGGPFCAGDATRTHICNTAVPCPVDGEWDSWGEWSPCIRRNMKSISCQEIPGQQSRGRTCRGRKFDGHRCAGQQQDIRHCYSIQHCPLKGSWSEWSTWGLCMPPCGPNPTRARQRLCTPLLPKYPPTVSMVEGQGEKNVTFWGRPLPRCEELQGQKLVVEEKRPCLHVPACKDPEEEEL

co3_human C3, P01024, sequence (P01024 whole entry): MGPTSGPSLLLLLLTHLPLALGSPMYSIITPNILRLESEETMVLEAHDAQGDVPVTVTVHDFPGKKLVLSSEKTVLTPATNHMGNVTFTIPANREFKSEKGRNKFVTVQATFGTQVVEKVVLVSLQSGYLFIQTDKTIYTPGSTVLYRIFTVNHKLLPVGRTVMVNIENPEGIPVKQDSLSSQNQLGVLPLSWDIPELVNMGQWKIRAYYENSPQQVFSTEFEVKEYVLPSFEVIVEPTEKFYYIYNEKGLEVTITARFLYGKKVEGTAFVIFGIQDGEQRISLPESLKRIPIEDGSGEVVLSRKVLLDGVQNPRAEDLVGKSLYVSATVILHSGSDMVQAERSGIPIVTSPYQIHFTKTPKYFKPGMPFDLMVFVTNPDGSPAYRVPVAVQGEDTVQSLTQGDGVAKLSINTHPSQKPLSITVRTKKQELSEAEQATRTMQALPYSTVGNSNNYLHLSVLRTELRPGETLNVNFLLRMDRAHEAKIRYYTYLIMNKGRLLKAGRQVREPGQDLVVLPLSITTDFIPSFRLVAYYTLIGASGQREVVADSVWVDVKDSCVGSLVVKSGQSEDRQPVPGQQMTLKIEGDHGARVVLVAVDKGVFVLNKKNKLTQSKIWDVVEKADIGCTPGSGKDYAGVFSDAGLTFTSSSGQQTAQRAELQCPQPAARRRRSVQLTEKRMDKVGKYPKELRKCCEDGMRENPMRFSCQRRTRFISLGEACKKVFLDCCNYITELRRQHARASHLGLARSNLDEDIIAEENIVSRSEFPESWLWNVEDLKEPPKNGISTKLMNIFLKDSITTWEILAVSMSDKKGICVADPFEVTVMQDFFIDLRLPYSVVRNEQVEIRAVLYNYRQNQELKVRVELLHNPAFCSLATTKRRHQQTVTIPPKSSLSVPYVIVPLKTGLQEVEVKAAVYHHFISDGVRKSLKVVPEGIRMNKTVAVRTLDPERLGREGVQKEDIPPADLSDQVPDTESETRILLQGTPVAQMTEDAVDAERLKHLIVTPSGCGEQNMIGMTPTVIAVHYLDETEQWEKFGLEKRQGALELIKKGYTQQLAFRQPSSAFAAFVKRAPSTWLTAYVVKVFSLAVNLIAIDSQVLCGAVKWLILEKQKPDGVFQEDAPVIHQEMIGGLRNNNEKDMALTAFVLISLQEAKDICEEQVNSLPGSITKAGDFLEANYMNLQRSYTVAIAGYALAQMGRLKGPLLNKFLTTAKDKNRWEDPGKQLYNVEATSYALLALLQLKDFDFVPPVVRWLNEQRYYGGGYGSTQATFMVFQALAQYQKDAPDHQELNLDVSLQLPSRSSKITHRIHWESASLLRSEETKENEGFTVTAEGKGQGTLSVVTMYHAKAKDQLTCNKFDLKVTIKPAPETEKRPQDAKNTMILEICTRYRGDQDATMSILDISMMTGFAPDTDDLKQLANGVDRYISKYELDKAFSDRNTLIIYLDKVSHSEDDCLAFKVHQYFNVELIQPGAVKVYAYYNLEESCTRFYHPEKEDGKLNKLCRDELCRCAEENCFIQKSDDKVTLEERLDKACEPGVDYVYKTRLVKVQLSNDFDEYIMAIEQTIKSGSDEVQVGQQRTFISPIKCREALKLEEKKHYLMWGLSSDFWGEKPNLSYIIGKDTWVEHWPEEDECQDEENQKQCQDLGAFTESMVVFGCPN
cfab_human CFB, P00751, sequence (P00751 whole entry): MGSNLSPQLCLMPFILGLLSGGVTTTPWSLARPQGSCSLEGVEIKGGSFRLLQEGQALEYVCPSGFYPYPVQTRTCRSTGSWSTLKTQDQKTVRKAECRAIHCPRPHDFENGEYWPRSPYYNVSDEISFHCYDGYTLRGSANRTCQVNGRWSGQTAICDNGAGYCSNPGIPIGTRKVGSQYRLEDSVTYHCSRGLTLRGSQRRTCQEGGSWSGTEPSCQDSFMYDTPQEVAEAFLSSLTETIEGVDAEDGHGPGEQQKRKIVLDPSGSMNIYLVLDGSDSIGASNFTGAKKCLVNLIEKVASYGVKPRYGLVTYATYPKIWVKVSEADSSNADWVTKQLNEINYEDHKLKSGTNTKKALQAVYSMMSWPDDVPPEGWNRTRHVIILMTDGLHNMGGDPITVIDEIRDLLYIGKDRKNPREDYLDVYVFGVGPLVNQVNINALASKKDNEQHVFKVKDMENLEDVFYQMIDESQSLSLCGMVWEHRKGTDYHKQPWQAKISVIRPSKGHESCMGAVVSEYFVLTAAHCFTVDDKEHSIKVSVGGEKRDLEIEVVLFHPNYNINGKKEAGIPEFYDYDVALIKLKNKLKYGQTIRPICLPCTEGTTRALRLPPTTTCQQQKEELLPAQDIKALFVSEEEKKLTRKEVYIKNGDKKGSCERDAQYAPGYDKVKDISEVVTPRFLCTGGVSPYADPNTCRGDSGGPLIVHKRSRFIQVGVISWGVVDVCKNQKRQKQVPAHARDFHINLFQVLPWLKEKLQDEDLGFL

effect of a mutation on the interaction (co3_human C3, P01024)	effect of a mutation on the interaction (cfab_human CFB, P00751)	effect of a mutation on the interaction (prop_human CFP, P27918)	Variant
decreasing interaction strength	decreasing interaction strength	decreasing interaction strength	MLLLINVILTLWVSCANGQEVKPCDFPEIQHGGLYYKSLRRLYFPAAAGQSYSYYCDQNFVTPSGSYWDYIHCTQDGWSPTVPCLRTCSKSDIEIENGFISESSSIYILNKEIQYKCKPGYATADGNSSGSITCLQNGWSAQPICIKFCDMPVFENSRAKSNGMRFKLHDTLDYECYDGYEISYGNTTGSIVCGEDGWSHFPTCYNSSEKCGPPPPISNGGTTSFLLKVYVPQSRVEYQCQSYYELQGSNYVTCSNGEWSEPPRCIHPCIITEENMNKNNIQLKGKSDIKYYAKTGDTIEFMCKLGYNANTSVLSFQAVCREGIVEYPRCE [D221G]
disrupting interaction strength	disrupting interaction strength	disrupting interaction strength	MLLLINVILTLWVSCANGQEVKPCDFPEIQHGGLYYKSLRRLYFPAAAGQSYSYYCDQNFVTPSGSYWDYIHCTQDGWSPTVPCLRTCSKSDIEIENGFISESSSIYILNKEIQYKCKPGYATADGNSSGSITCLQNGWSAQPICIKFCDMPVFENSRAKSNGMRFKLHDTLDYECYDGYEISYGNTTGSIVCGEDGWSHFPTCYNSSEKCGPPPPISNGGTTSFLLKVYVPQSRVEYQCQSYYELQGSNYVTCSNGEWSEPPRCIHPCIITEENMNKNNIQLKGKSDIAYYAKTGDTIEFMCKLGYNANTSVLSFQAVCREGIVEYPRCE [D221G;K290A]
